Drawing on patent US20150344570A1 (published 2015), this text covers He/Con_1a for eleven molecules.

For the assay, the target named is T1, FcγRIa (human, UniProt P12314 16-292).
T1 construct: extracellular domain; also called FcgRI; FcgRIa; not shown: His tag attached to the C terminus
The assay is described as follows: SPR (Biacore), relative binding; control HeCon Ab GpH7-A5/GpH7-B3/GpL16-k0.

T1 sequence (P12314 16-292): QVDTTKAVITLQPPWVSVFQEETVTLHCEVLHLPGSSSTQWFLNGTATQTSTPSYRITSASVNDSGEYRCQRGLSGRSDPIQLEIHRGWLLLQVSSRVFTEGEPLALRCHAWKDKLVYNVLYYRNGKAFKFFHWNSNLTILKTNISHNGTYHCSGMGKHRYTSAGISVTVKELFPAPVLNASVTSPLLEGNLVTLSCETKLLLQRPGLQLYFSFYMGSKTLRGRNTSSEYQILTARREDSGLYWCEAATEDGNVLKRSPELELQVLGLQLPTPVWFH

B1: GpH7-A5/GpH7-B3 variant K334_15Y/GpL16-k0 (antibody, human IgG1, kappa)
heavy 1: not shown
heavy 2: not shown
light: DIVMTQSPLSLPVTPGEPASISCQASESLVHSNRNTYLHWYLQKPGQSPQLLIYKVSNRFSGVPDRFSGSGSGTDFTLKISRVEAEDVGVYYCSQNTHVPPTFGQGTKVEIERTVAAPSVFIFPPSDEQLKSGTASVVCLLNNFYPREAKVQWKVDNALQSGNSQESVTEQDSKDSTYSLSSTLTLSKADYEKHKVYACEVTHQGLSSPVTKSFNRGEC
notes: Alteration in one H chain only; also called He Ab K334_15Y
Take B1: the He/Con_1a was 105 % of control (=100).

B2: GpH7-A5/GpH7-B3 variant S267_10E/GpL16-k0 (antibody, human IgG1, kappa)
heavy 1: not shown
heavy 2: not shown
light: DIVMTQSPLSLPVTPGEPASISCQASESLVHSNRNTYLHWYLQKPGQSPQLLIYKVSNRFSGVPDRFSGSGSGTDFTLKISRVEAEDVGVYYCSQNTHVPPTFGQGTKVEIERTVAAPSVFIFPPSDEQLKSGTASVVCLLNNFYPREAKVQWKVDNALQSGNSQESVTEQDSKDSTYSLSSTLTLSKADYEKHKVYACEVTHQGLSSPVTKSFNRGEC
notes: Alteration in one H chain only; also called He Ab S267_10E
As to B2, the He/Con_1a is 106 % of control (=100).

B3: GpH7-A5/GpH7-B3 variant P271_10E/GpL16-k0 (antibody, human IgG1, kappa)
heavy 1: not shown
heavy 2: not shown
light: DIVMTQSPLSLPVTPGEPASISCQASESLVHSNRNTYLHWYLQKPGQSPQLLIYKVSNRFSGVPDRFSGSGSGTDFTLKISRVEAEDVGVYYCSQNTHVPPTFGQGTKVEIERTVAAPSVFIFPPSDEQLKSGTASVVCLLNNFYPREAKVQWKVDNALQSGNSQESVTEQDSKDSTYSLSSTLTLSKADYEKHKVYACEVTHQGLSSPVTKSFNRGEC
notes: Alteration in one H chain only; also called He Ab P271_10E
As to B3, the He/Con_1a is 103 % of control (=100).

B4: GpH7-A5/GpH7-B3 variant L328_15Y/GpL16-k0 (antibody, human IgG1, kappa)
heavy 1: not shown
heavy 2: not shown
light: DIVMTQSPLSLPVTPGEPASISCQASESLVHSNRNTYLHWYLQKPGQSPQLLIYKVSNRFSGVPDRFSGSGSGTDFTLKISRVEAEDVGVYYCSQNTHVPPTFGQGTKVEIERTVAAPSVFIFPPSDEQLKSGTASVVCLLNNFYPREAKVQWKVDNALQSGNSQESVTEQDSKDSTYSLSSTLTLSKADYEKHKVYACEVTHQGLSSPVTKSFNRGEC
notes: Alteration in one H chain only; also called He Ab L328_15Y
As for B4, the He/Con_1a was 102 % of control (=100).

B5: GpH7-A5/GpH7-B3 variant S239_10E/GpL16-k0 (antibody, human IgG1, kappa)
heavy 1: not shown
heavy 2: not shown
light: DIVMTQSPLSLPVTPGEPASISCQASESLVHSNRNTYLHWYLQKPGQSPQLLIYKVSNRFSGVPDRFSGSGSGTDFTLKISRVEAEDVGVYYCSQNTHVPPTFGQGTKVEIERTVAAPSVFIFPPSDEQLKSGTASVVCLLNNFYPREAKVQWKVDNALQSGNSQESVTEQDSKDSTYSLSSTLTLSKADYEKHKVYACEVTHQGLSSPVTKSFNRGEC
notes: Alteration in one H chain only; also called He Ab S239_10E
B5: the He/Con_1a was 105 % of control (=100).

B6: GpH7-A5/GpH7-B3 variant P271_19Q/GpL16-k0 (antibody, human IgG1, kappa)
heavy 1: not shown
heavy 2: not shown
light: DIVMTQSPLSLPVTPGEPASISCQASESLVHSNRNTYLHWYLQKPGQSPQLLIYKVSNRFSGVPDRFSGSGSGTDFTLKISRVEAEDVGVYYCSQNTHVPPTFGQGTKVEIERTVAAPSVFIFPPSDEQLKSGTASVVCLLNNFYPREAKVQWKVDNALQSGNSQESVTEQDSKDSTYSLSSTLTLSKADYEKHKVYACEVTHQGLSSPVTKSFNRGEC
notes: Alteration in one H chain only; also called He Ab P271_19Q
Turning to B6, the He/Con_1a was 103 % of control (=100).

B7: GpH7-A5/GpH7-B3 variant S267_18N/GpL16-k0 (antibody, human IgG1, kappa)
heavy 1: not shown
heavy 2: not shown
light: DIVMTQSPLSLPVTPGEPASISCQASESLVHSNRNTYLHWYLQKPGQSPQLLIYKVSNRFSGVPDRFSGSGSGTDFTLKISRVEAEDVGVYYCSQNTHVPPTFGQGTKVEIERTVAAPSVFIFPPSDEQLKSGTASVVCLLNNFYPREAKVQWKVDNALQSGNSQESVTEQDSKDSTYSLSSTLTLSKADYEKHKVYACEVTHQGLSSPVTKSFNRGEC
notes: Alteration in one H chain only; also called He Ab S267_18N
Take B7: the He/Con_1a is 102 % of control (=100).

B8: GpH7-A5/GpH7-B3 variant K334_14T/GpL16-k0 (antibody, human IgG1, kappa)
heavy 1: not shown
heavy 2: not shown
light: DIVMTQSPLSLPVTPGEPASISCQASESLVHSNRNTYLHWYLQKPGQSPQLLIYKVSNRFSGVPDRFSGSGSGTDFTLKISRVEAEDVGVYYCSQNTHVPPTFGQGTKVEIERTVAAPSVFIFPPSDEQLKSGTASVVCLLNNFYPREAKVQWKVDNALQSGNSQESVTEQDSKDSTYSLSSTLTLSKADYEKHKVYACEVTHQGLSSPVTKSFNRGEC
notes: Alteration in one H chain only; also called He Ab K334_14T
Consider B8, for which the He/Con_1a is 105 % of control (=100).

B9: GpH7-A5/GpH7-B3 variant P271_01G/GpL16-k0 (antibody, human IgG1, kappa)
heavy 1: not shown
heavy 2: not shown
light: DIVMTQSPLSLPVTPGEPASISCQASESLVHSNRNTYLHWYLQKPGQSPQLLIYKVSNRFSGVPDRFSGSGSGTDFTLKISRVEAEDVGVYYCSQNTHVPPTFGQGTKVEIERTVAAPSVFIFPPSDEQLKSGTASVVCLLNNFYPREAKVQWKVDNALQSGNSQESVTEQDSKDSTYSLSSTLTLSKADYEKHKVYACEVTHQGLSSPVTKSFNRGEC
notes: Alteration in one H chain only; also called He Ab P271_01G
For B9, the He/Con_1a was 105 % of control (=100).

B10: GpH7-A5/GpH7-B3 variant K334_19Q/GpL16-k0 (antibody, human IgG1, kappa)
heavy 1: not shown
heavy 2: not shown
light: DIVMTQSPLSLPVTPGEPASISCQASESLVHSNRNTYLHWYLQKPGQSPQLLIYKVSNRFSGVPDRFSGSGSGTDFTLKISRVEAEDVGVYYCSQNTHVPPTFGQGTKVEIERTVAAPSVFIFPPSDEQLKSGTASVVCLLNNFYPREAKVQWKVDNALQSGNSQESVTEQDSKDSTYSLSSTLTLSKADYEKHKVYACEVTHQGLSSPVTKSFNRGEC
notes: Alteration in one H chain only; also called He Ab K334_19Q
In the case of B10, the He/Con_1a was 106 % of control (=100).

B11: GpH7-A5/GpH7-B3 variant S267_14T/GpL16-k0 (antibody, human IgG1, kappa)
heavy 1: not shown
heavy 2: not shown
light: DIVMTQSPLSLPVTPGEPASISCQASESLVHSNRNTYLHWYLQKPGQSPQLLIYKVSNRFSGVPDRFSGSGSGTDFTLKISRVEAEDVGVYYCSQNTHVPPTFGQGTKVEIERTVAAPSVFIFPPSDEQLKSGTASVVCLLNNFYPREAKVQWKVDNALQSGNSQESVTEQDSKDSTYSLSSTLTLSKADYEKHKVYACEVTHQGLSSPVTKSFNRGEC
notes: Alteration in one H chain only; also called He Ab S267_14T
In the case of B11, the He/Con_1a is 102 % of control (=100).
